“Also recorded” adds a separate entry of the source. Blank lines part the entries; values can stand above or below the molecule they belong to.
Columns and labels:
[1] = test system: wild type mouse DRG neurons; assay: GDNF-evoked [Ca^2+]i changes, confocal microscopy with Calcium Green-1AM, wild type DRG neurons; type: cell-based; conditions: for change in [Ca^2+]i: 100 ng/ml, heat-inactivated at 98° C. for 15 min
Method: (§1) DRG from embryonic day 18 (E18) mice were treated with trypsin (Worthington), non-neuronal cells removed by preplating, and about 95% pure neurons cultured on poly-ornithine-laminin-coated glass coverslips in Ham's F14 medium (Imperial Laboratories) with serum substitute containing NGF, BDNF and NT-3 (all from PeproTech, 2 ng/ml if each) for at least 1 day before measurement. Neurotrophins were extensively washed out before GDNF application. GDNF was from PeproTech and donated by Cephalon, Inc. Ret-deficient mice (Schuchardt et al., 1994) were identified from heterozygote matings by the absence of kidneys and PCR-based genotyping. GFRα2-deficient mice were obtained from homozygote matings (Rossi et al., 1999).
(§2) [Ca^2+]i was measured using a Bio-Rad MRC-1024 confocal microscope equipped with an argon-krypton laser. The cells were loaded with 10 μM Calcium Green-1AM (Molecular Probes), a membrane permeable Ca^2+ dye, by 30 min incubation in serum free cell-culture media at 37 ° C. and 5 % CO2. After loading, the neurons were kept at room temperature in Dulbecco's PBS solution contained 20 mM HEPES (pH=7.4) for at least 20 min prior to the experiments. All compounds were applied to the bath by a peristaltic pump. 6 kD Heparin (Sigma) and Alexa 568 nm fluorescent dye (Molecular Probes) were loaded into the cells using Molecular Probes' pinocytotic influx loading reagent basically according to the manufacturer instructions. […] Cell injection was performed using Eppendorf microinjection system. The average intensity of fluorescence in the predefined ROI (Region Of Interest) was measured on-line using TimeCourse software from BioRad. The calibration of fluorescence traces was performed in vitro using Fmax and Fmin values obtained with the calcium calibration buffer kit (Molecular Probes). Because the calibration solutions may not reflect the intracellular environment, the experimental data are presented as delta [Ca^2+]i calculated using Kd=190 nM for Calcium Green-1.

Ret^−/− DRG neurons = assay: GDNF-evoked [Ca^2+]i changes, confocal microscopy, Ret^−/− DRG neurons; type: cell-based, mouse; conditions: for GDNF-evoked [Ca^2+]i elevation in heparin injected neurons: 6kD heparin injected, versus solvent/saline injected control neurons
Method: as §1, §2

GFRα2^−/− DRG neurons = assay: GDNF-evoked [Ca^2+]i changes, confocal microscopy, GFRα2^−/− DRG neurons; type: cell-based, mouse; conditions: pre-treatment 10 μM U-73122
Method: as §1, §2
Transgenic GFRα2 knock-out mice were produced in our laboratory. […]

[2] = molecular target: T1, GFRα1 of the Ret-negative human SHEP neuroblastoma cell line (human) (UniProt P56159); assay: anti-GFRα1 immunoprecipitate from the Triton X-100 insoluble fraction of SHEP cells, Western blot with pan-Src antibodies; lane 1 min of 100 ng/ml GDNF
T1 sequence (GPI anchor, looked up): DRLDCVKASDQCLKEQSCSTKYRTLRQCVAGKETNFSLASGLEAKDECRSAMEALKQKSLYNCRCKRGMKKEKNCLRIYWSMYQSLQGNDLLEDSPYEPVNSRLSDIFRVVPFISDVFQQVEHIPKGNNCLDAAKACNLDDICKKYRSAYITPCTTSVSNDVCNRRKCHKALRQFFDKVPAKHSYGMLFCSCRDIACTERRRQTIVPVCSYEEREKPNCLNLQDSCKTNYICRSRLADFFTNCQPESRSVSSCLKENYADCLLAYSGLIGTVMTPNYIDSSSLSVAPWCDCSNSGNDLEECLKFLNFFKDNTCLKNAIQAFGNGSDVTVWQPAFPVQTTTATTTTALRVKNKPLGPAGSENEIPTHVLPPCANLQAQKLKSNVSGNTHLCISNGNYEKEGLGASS

[3] = molecular target: T1, GFRα1 of the Ret-negative human SHEP neuroblastoma cell line (human); assay: anti-GFRα1 immunoprecipitate from the Triton X-100 insoluble fraction of SHEP cells, Western blot with pan-Src antibodies; lane 7 min of 100 ng/ml GDNF
[4] = molecular target: T1, GFRα1 of the Ret-negative human SHEP neuroblastoma cell line (human); assay: anti-GFRα1 immunoprecipitate from the Triton X-100 insoluble fraction of SHEP cells, Western blot with pan-Src antibodies; lane 30 sec of 100 ng/ml GDNF
[5] = molecular target: T1, GFRα1 of the Ret-negative human SHEP neuroblastoma cell line (human); assay: anti-GFRα1 immunoprecipitate from the Triton X-100 insoluble fraction of SHEP cells, Western blot with pan-Src antibodies; lane 0 min GDNF (reference lane)
[6] = molecular target: T1, GFRα1 of the Ret-negative human SHEP neuroblastoma cell line (human)
[7] = molecular target: T1, GFRα1 of the Ret-negative human SHEP neuroblastoma cell line (human); assay: cell-based or functional assay
[8] = molecular target: T2, GPI-anchored GDNF family receptor α1 (GFRα1) of mouse E18 DRG neurons (mouse) (UniProt P97785); assay: cell-based or functional assay
T2 sequence (GPI anchor, looked up): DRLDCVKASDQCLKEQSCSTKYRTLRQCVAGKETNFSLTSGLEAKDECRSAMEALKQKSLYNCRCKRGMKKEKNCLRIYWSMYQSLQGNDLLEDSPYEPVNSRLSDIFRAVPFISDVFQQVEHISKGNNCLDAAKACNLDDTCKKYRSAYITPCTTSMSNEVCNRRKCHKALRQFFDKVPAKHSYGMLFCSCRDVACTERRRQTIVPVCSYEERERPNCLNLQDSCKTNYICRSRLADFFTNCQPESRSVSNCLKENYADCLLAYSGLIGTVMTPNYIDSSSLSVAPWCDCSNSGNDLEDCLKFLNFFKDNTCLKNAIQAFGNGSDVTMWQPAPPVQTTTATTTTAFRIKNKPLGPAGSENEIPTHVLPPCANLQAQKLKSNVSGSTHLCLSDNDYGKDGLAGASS

Molecule: C/C=C(/C)C(=O)O[C@H]1C(C)=C2[C@H]([C@@H]1OC(=O)CCCCCCC)[C@@](C)(OC(C)=O)C[C@H](OC(=O)CCC)[C@@]1(O)[C@H]2OC(=O)[C@@]1(C)O [thapsigargin]
change in [Ca^2+]i on application of thapsigargin ([1]; 5 μM, applied at the end of the experiments): profound elevation in [Ca^2+]i | GDNF-evoked [Ca^2+]i elevation after pre-treatment ([1]; pre-treatment 5 μM thapsigargin): abolished the effect of GDNF; also recorded: resulted in the abolishing of the effect of GDNF | change in [Ca^2+]i on thapsigargin treatment (Ret^−/− DRG neurons; 5 μM, end of experiments, PI-PLC pre-treated neurons): [Ca^2+]i was transiently increased

Molecule: phosphatidylinositol-specific phospholipase C [PI-PLC]
GDNF-evoked [Ca^2+]i elevation after pre-treatment ([1]; pre-treatment 1U/ml PI-PLC, GDNF 100 ng/ml): eliminates GDNF-evoked [Ca^2+]i elevation; also recorded: None of the pre-treated neurons responded | GDNF-evoked [Ca^2+]i elevation after pre-treatment (Ret^−/− DRG neurons; pre-treatment PI-PLC 1 U/ml for 1 hr at 37° C.): abolished the effect of GDNF; also recorded: did not affect [Ca^2+]i

Molecule: COc1ccc2c(c1)CC[C@@H]1[C@@H]2CC[C@]2(C)[C@@H](NCCCCCCN3C(=O)C=CC3=O)CC[C@@H]12 [U-73122]
GDNF-evoked [Ca^2+]i elevation after pre-treatment ([1]; pre-treatment with U-73122): resulted in abolishing of the effect of GDNF; also recorded: resulted in the abolishing of the effect of GDNF | GDNF-evoked release of Ca^2+ from internal stores after pre-treatment (GFRα2^−/− DRG neurons): inhibited release of Ca^2+ from the internal stores | GDNF-evoked long-lasting [Ca^2+]i elevation / Ca^2+ release after pre-treatment (Ret^−/− DRG neurons; pre-treatment U-73122 (10 μM)): completely abolished; also recorded: inhibited release of Ca^2+ from the internal stores

Molecule: heparin
GDNF-evoked [Ca^2+]i elevation in heparin injected neurons (Ret^−/− DRG neurons): did not evoke an increase in [Ca^2+]i | GDNF-evoked [Ca^2+]i elevation in heparin injected neurons (Ret^−/− DRG neurons; listed as Heparin): did not significantly respond to GDNF application | [Ca^2+]i response of neurons loaded by pinocytosis with heparin (Ret^−/− DRG neurons; heparin with Alexa dye, 100 nM GDNF or 10 μM ATP): did not respond either to 100 nM GDNF or to 10 μM ATP

fold (pan-Src band in the anti-GFRα1 immunoprecipitate, relative to 0 min) [2]: 1.5 fold | fold (pan-Src band in the anti-GFRα1 immunoprecipitate, relative to 0 min) [3]: 1.2 fold | fold (pan-Src band in the anti-GFRα1 immunoprecipitate, relative to 0 min) [4]: 1.5 fold | fold (pan-Src band in the anti-GFRα1 immunoprecipitate, relative to 0 min) [5]: 1 fold
Molecule: GFRα1-coupled Src-type kinase of SHEP cells, co-migrating with p62Yes (from UniProt P07947 2-543) (enzyme)

in vitro kinase activity co-precipitated with anti-GFRα1 antibodies from the Triton X-100 insoluble fraction of SHEP cells, fold relative to untreated cells; lane 0 min (reference lane) [6]: 1 fold | in vitro kinase activity co-precipitated with anti-GFRα1 antibodies from the Triton X-100 insoluble fraction of SHEP cells, fold relative to untreated cells; lane 30 sec of 100 ng/ml GDNF [6]: 12 fold | in vitro kinase activity co-precipitated with anti-GFRα1 antibodies from the Triton X-100 insoluble fraction of SHEP cells, fold relative to untreated cells; lane 1 min of 100 ng/ml GDNF [6]: 10 fold | in vitro kinase activity co-precipitated with anti-GFRα1 antibodies from the Triton X-100 insoluble fraction of SHEP cells, fold relative to untreated cells; lane 7 min of 100 ng/ml GDNF [6]: 7 fold | Src-type kinase activity in co-precipitates with anti-GFRα1 antibodies from Triton X-100 insoluble fractions of SHEP cells [7]: 12 fold | [Ca^2+]i elevation in Ret^-/- DRG neurons (confocal microscopy, Calcium Green-1) (% of the neurons) [8]: 60 to 70
B1: Glial cell line-derived neurotrophic factor (GDNF) (ligand, UniProt P39905 78-211, looked up, species assumed)
Glial cell line-derived neurotrophic factor: SPDKQMAVLPRRERNRQAAAANPENSRGKGRRGQRGKNRGCVLTAIHLNVTDLGLGYETKEELIFRYCSGSCDAAETTYDKILKNLSRNRRLVSDKVGQACCRPIAFDDDLSFLDDNLVYHILRKHSAKRCGCI

B2: Heat-inactivated GDNF: GDNF heat-inactivated at 98° C. for 15 min, used as specificity control (protein, UniProt P39905 78-211, looked up)
Glial cell line-derived …: SPDKQMAVLPRRERNRQAAAANPENSRGKGRRGQRGKNRGCVLTAIHLNVTDLGLGYETKEELIFRYCSGSCDAAETTYDKILKNLSRNRRLVSDKVGQACCRPIAFDDDLSFLDDNLVYHILRKHSAKRCGCI
modifications: heat-inactivated
change in [Ca^2+]i [1]: did not evoke any changes of basal [Ca^2+]i | change in [Ca^2+]i ([1]; heat-inactivated): did not evoke changes in [Ca^2+]i | change in [Ca^2+]i (Ret^−/− DRG neurons; prolonged application, heat-inactivated, 100 ng/ml): did not respond with [Ca^2+]i elevations

— US6905817B1, “Ret-independent signaling pathway for GDNF” (Licestia Ltd., priority 1998, dated 2005)
